In US7264809B1, “Methods of inhibiting platelet activation and recruitment” (Immunex Corporation, priority 1998, dated 2007):

What was measured:
[1] = TLC assay for ATPase activity; format: biochemical
Experimental: (§1) Following growth in selective medium, CM from CHO cell cultures was analyzed for ATPase and ADPase activities. ADPase assays (Marcus et al., J. Clin. Invest. 88:1690, 1991) were primarily used in determining enzyme kinetics and pharmacokinetics. Test samples were incubated with 50 μM [^14C] ADP (NEN Life Science Products) in assay buffer (15 mM Tris, 134 mM NaCl, 5 mM glucose, pH 7.4, containing 10 μM Ap5A (P^1,P^5-di[adenosine-5′]pentaphosphate, 1 mM ouabain, 10 μM dipyridamole, and 3 mM CaCl2) in a total volume of 50 μl (5 min, 37° C.). Reactions were stopped by placement on ice and addition of 10 μl “stop solution” (160 mM disodium EDTA, pH 7.0, 17 mM ADP, 0.15 M NaCl) to block further metabolism of ADP. Nucleotides, nucleosides, and bases were separated by TLC using isobutanol/1-pentanol/ethylene glycol monoethyl ether/NH4OH/H2O (90:60:180:90:120). Radioactivity was quantified by radio TLC scanning (RTLC multiscanner; Packard, Meriden, Conn.). Results were calculated as averages of duplicate to quadruplicate measurements after subtraction of buffer blanks (consistently <1% of total radioactivity). Data were expressed as percentage of ADP metabolized or as pmol ADP metabolized per minute per μl CM. A unit of activity is the quantity of enzyme which will degrade 1 μmol of ADP in 1 min at 37° C. Identical assays were performed using ATP as a substrate in order to examine the kinetics of the ATPase activity of CD39.
(§2) Using the TLC assay system described in Example 12B, the ADPase activity of the membrane-bound HUVEC ecto-ADPase was determined at different pHs in buffers containing 100 mM bis-trispropane (Sigma, St. Louis, Mo.). […] Kinetic constants for CD39 metabolism of ATP and ADP were determined by measuring the initial rates of reaction as analyzed in the TLC system.

mouse platelets = test: Reversal of ADP-induced aggregation of mouse platelets in vitro; format: cell-based; details: 5 μM ADP; soluble CD39 2.5 or 1.25 μg/ml
Experimental: ADP (5 μM) was added to mouse platelets in vitro to induce an aggregation response. Soluble CD39 (2.5 μg/ml or 1.25 μg/ml) was added at the peak of the aggregation response.

[2] = design: species or system Balb/c mice; details: mouse, in vivo, iv
Experimental: At various times after injection (5, 10, 30 min, 1, 2, 4, 8, 24 h), pairs of mice were bled by cardiac puncture and euthanized. Serum was prepared from each blood sample and frozen until assay. […] The data were fit using […], Monterey, Calif.). The best fit was derived using double exponential decay. Where indicated, specificity of enzyme activity was determined by incubating serum samples with anti-CD39 mAb-coated beads to remove CD39 prior to testing for ATPase activity.

Bleeding time in mice = format: in vivo; details: aspirin 5 mg/kg; increasing doses of solCD39 (4, 8, 20 mg/kg)
From the text: (*p<0.05, ^‡p<0.01, ^†p<0.001).
Hematological profiles, including erythrocyte parameters, platelet counts, leukocyte counts and differentials, and coagulation screening, were normal. […] Under those conditions, the defect was abolished and normal blood fluidity was restored by administration of soluble CD39.

platelets [3] = test: Platelet aggregation in human platelet-rich plasma; format: cell-based
Experimental: After obtaining informed consent from volunteers, blood was collected via plastic tubing using acid citrate-dextrose (38 mM citric acid; 75 mM sodium citrate; 135 mM glucose) as anticoagulant. Where indicated, volunteers had ingested 650 mg acetylsalicylic acid (ASA) 18 h prior to blood donation. […] The stock suspension of PRP was maintained at room temperature under 5% CO2-air. […] Total volumes were adjusted to 300 μl with TSG buffer (Marcus et al., J. Clin. Invest. 88:1690, 1991; Marcus et al., J. Clin. Invest. 99:1351, 1997). […] A mock-treated sample was also prepared in which the FSBA solution was replaced with water. After incubating at 37° for 90 min., the samples were centrifuged in a Centricon-10 filter unit (Amicon Corp.) for 1 hour at 5,500 rpm and buffer exchanged into PBS to remove unreacted material.

[4] = design: species or system pigs; details: pig, in vivo
Experimental: Aspirin was administered orally on a daily basis. Placebo controls consisted of aspirin. Saline controls and solCD39 were administered as a single bolus. Time points were measured following this administration. Blood samples were obtained via an external jugular vein catheter. […] ADP-induced platelet aggregation was measured at specific time intervals following administration. The concentration of CD39 in serum as a function of time was measured using an ELISA assay. Distribution and clearance half-lives were determined using a biphasic curve fit.

[5] = TLC assay for ADPase activity; format: biochemical
Experimental: as §1, §2

platelets [6] = test: Ex vivo additive inhibition of platelet aggregation in patient platelet rich plasma; format: cell-based, human

B1: solCD39: recombinant soluble human CD39, untagged: 12 mature huIL2 residues, three amino acid linker, sol CD39 (SEQ ID NO:7) (protein)
chain: MALWIDRMQLLSCIALSLALVTNSAPTSSSTKKTQLTSSTQNKALPENVKYGIVLDAGSSHTSLYIYKWPAEKENDTGVVHQVEECRVKGPGISKFVQKVNEIGIYLTDCMERAREVIPRSQHQETPVYLGATAGMRLLRMESEELADRVLDVVERSLSNYPFDFQGARIITGQEEGAYGWITINYLLGKFSQKTRWFSIVPYETNNQETFGALDLGGASTQVTFVPQNQTIESPDNALQFRLYGKDYNVYTHSFLCYGKDQALWQKLAKDIQVASNEILRDPCFHPGYKKVVNVSDLYKTPCTKRFEMTLPFQQFEIQGIGNYQQCHQSILELFNTSYCPYSQCAFNGIFLPPLQGDFGAFSAFYFVMKFLNLTSEKVSQEKVTEMMKKFCAQPWEEIKTSYAGVKEKYLSEYCFSGTYILSLLLQGYHFTADSWEHIHFIGKIQGSDAGWTLGYMLNLTNMIPAEQPLSTPLSHST
What does the source list for B1?
Vmax for ATP ([1]; 2×10^−9 M solCD39): 26 pmol/min; kcat (ATP) ([1]; 2×10^−9 M solCD39): 4.33 s⁻¹; specific activity for ATP ([1]; purified recombinant solCD39): 4 U/mg; aggregation response when added at the peak (mouse platelets): immediately reversed; apyrase activity cleared from the circulation during distribution phase [2]: 55-65%; t1/2α (distribution phase), ADPase assay ([2]; 50 ug): 43 min; t1/2α (distribution phase), ATPase assay ([2]; 50 ug): 59 min; bleeding times (Bleeding time in mice): markedly increased; platelet aggregation induced by 10 μM ADP (platelets [3]; 3.3 μg/ml solCD39, PRP from aspirin-ingesting donor): abruptly terminated; induction of platelet activation by ADP or collagen (platelets [3]; ASA-treated PRP, 10 μM ADP (4.4 μg/ml) or collagen (22 μg/ml)): significantly inhibited; effect on collagen-induced aggregation with increasing quantity (platelets [3]; PRP from aspirin-ingesting donor): dose dependent; platelet responsiveness to 5 μM ADP (platelets [3]; PRP with or without 10 μM indomethacin, CM containing solCD39 from COS-1 and CHO cells): completely abrogating; platelet aggregation response to collagen (platelets [3]; collagen 1 μg/ml, PRP): markedly reduced; elimination half-life of biological activity (ADPase activity) [4]: 5-7 days; t1/2α (distribution phase) [4]: 29 min; Vmax for ADP ([5]; 2×10^−9 M solCD39): 72 pmol/min; kcat (ADP) ([5]; 2×10^−9 M solCD39): 12 s⁻¹; specific activity for ADP ([5]; purified recombinant solCD39): 11 U/mg; Platelet aggregation (platelets [6]; SolCD39 10 μg/ml, ADP, Abciximab group): 0 ± 0 arbitrary units; Platelet aggregation (platelets [6]; SolCD39 10 μg/ml, ADP, Aspirin group): 4 ± 2 arbitrary units; Platelet aggregation (platelets [6]; SolCD39 10 μg/ml, ADP, Clopidogrel group): 5 ± 2 arbitrary units; Platelet aggregation (platelets [6]; SolCD39 10 μg/ml, ADP, Placebo group): 0 ± 0 arbitrary units; Platelet aggregation (platelets [6]; SolCD39 10 μg/ml, ADP, Ticlopidine group): 10 ± 2 arbitrary units; Platelet aggregation (platelets [6]; SolCD39 10 μg/ml, Collagen, Abciximab group): 0 ± 0 arbitrary units; Platelet aggregation (platelets [6]; SolCD39 10 μg/ml, Collagen, Aspirin group): 21 ± 4 arbitrary units; Platelet aggregation (platelets [6]; SolCD39 10 μg/ml, Collagen, Clopidogrel group): 31 ± 9 arbitrary units; Platelet aggregation (platelets [6]; SolCD39 10 μg/ml, Collagen, Placebo group): 75 ± 2 arbitrary units; Platelet aggregation (platelets [6]; SolCD39 10 μg/ml, Collagen, Ticlopidine group): 48 ± 18 arbitrary units; Platelet aggregation (platelets [6]; SolCD39 10 μg/ml, TRAP, Abciximab group): 22 ± 10 arbitrary units; Platelet aggregation (platelets [6]; SolCD39 10 μg/ml, TRAP, Aspirin group): 38 ± 7 arbitrary units; Platelet aggregation (platelets [6]; SolCD39 10 μg/ml, TRAP, Clopidogrel group): 35 ± 1 arbitrary units; Platelet aggregation (platelets [6]; SolCD39 10 μg/ml, TRAP, Placebo group): 70 ± 3 arbitrary units; Platelet aggregation (platelets [6]; SolCD39 10 μg/ml, TRAP, Ticlopidine group): 19 ± 6 arbitrary units; Platelet aggregation (platelets [6]; SolCD39 100 μg/ml, ADP, Abciximab group): 0 ± 0 arbitrary units; Platelet aggregation (platelets [6]; SolCD39 100 μg/ml, ADP, Aspirin group): 1 ± 0 arbitrary units; Platelet aggregation (platelets [6]; SolCD39 100 μg/ml, ADP, Clopidogrel group): 0 ± 0 arbitrary units; Platelet aggregation (platelets [6]; SolCD39 100 μg/ml, ADP, Placebo group): 0 ± 0 arbitrary units; Platelet aggregation (platelets [6]; SolCD39 100 μg/ml, ADP, Ticlopidine group): 2 ± 2 arbitrary units; Platelet aggregation (platelets [6]; SolCD39 100 μg/ml, Collagen, Abciximab group): 0 ± 0 arbitrary units; Platelet aggregation (platelets [6]; SolCD39 100 μg/ml, Collagen, Aspirin group): 16 ± 4 arbitrary units; Platelet aggregation (platelets [6]; SolCD39 100 μg/ml, Collagen, Clopidogrel group): 21 ± 6 arbitrary units; Platelet aggregation (platelets [6]; SolCD39 100 μg/ml, Collagen, Placebo group): 57 ± 5 arbitrary units; Platelet aggregation (platelets [6]; SolCD39 100 μg/ml, Collagen, Ticlopidine group): 37 ± 15 arbitrary units; Platelet aggregation (platelets [6]; SolCD39 100 μg/ml, TRAP, Abciximab group): 22 ± 9 arbitrary units; Platelet aggregation (platelets [6]; SolCD39 100 μg/ml, TRAP, Aspirin group): 26 ± 5 arbitrary units; Platelet aggregation (platelets [6]; SolCD39 100 μg/ml, TRAP, Clopidogrel group): 23 ± 3 arbitrary units; Platelet aggregation (platelets [6]; SolCD39 100 μg/ml, TRAP, Placebo group): 65 ± 4 arbitrary units; Platelet aggregation (platelets [6]; SolCD39 100 μg/ml, TRAP, Ticlopidine group): 18 ± 7 arbitrary units
